From the DeepSol protein solubility set

Test: soluble on expression in E. coli; label from the status in PepcDB or PDB records

Sequence	soluble on expression in E. coli
MGSSHHHHHHGGTGENLYFQGGSGQQQPRPVVAQYAYIELLPLRYTGPAPPPAPACMDPTPDEQYRRGVAEKRAALKQKEARRQMSSSGSGMLASLKSAVSQAVMTMEKGAADVSTRTESQVRQLEYQYDCDRFNLHFHELAENGEVLLADYRCSAMHSGLRVNGHVQITPHYLCFLAETTSSIAKTTDAVMGVFVAARHPTSANDEPRNRPVGIKQVIALADIVSIQPSVVLESIGGQAPFFMLLPAPTVRPTALQLYTQDSKLYQFMNFESLVSRATVALNDVVKGTALDQAYNYLDHAWRDTVNLRSKDV	not soluble
TKDFAFDLNVNMAHNVSKVKELAPEENVNYMFFNGDGNFPVKVGTRAGHKLGEIYATSLYKRNENGDIIVNENGLPMTVTNESEYVNKPIGNIQPKLTMSVSPTFTYKGITLSALFDMKFGGDIFSYSEMLATGNGLAKRTLNRGEENNYMMVFPGVTESGEVNTKQVSASEYYGALQAEDFIYDASFIKLKELSIGYSFPSSMLKKTPVNSLNVSFVARNLCYLMKHTPGTSPEGGYDTTMFSQAIDYASLPFTRTFGISINLGF	not soluble
MSLDYGINFWSDNDFIIEDGQVKINYKTKPAIIDIVKKVREEGYRGPLLLRFPHLIKKQVDKIFTHFETSIKQYHYKGQFKAVFPLKVNQFPNFVLPLVELSQNRCYGLEAGSKAELIIAMAYTNKGSPITVNGFKDKEMISLGFIAANMGHEITLTIEGLNELETIIEVAEEMGKPCPNIGLRIRLHSSGIGIWAKSGGINSKFGLTSTELLEGIRLLEKHKLIEKFTMIHFHIGSQISDISPLKKAMREAGNIYAELRKMGAKNLKSVNIGGGLAVEYTQHEGSPNRNYTLDEFAGDVVFSLKEIAKNKKEPEPDIYIESGRYIAASHALLVAPVLELFSQEYDEKALHLKDKNPQLIEELNELYNTVNEKYAIEYLHDSLDHMESLLTLFDLGYIDLQDRSNTEILVHLIIKKVIKILKHKNHSDIIRIQEQVQERYLLNCSFFQSLPDYWGLEQSFPVMPLDRLNKRPTRSASLWDITCDSDGEIGFDLNKPLFLHDVDVTTEEYFLGFFLVGAYQEVLGMRHNLFTHPTELSVEFEEDGTHSVTNLLEAQTILDVLDDLDYDEGHHHHHH	not soluble
MGLAASEALQGSEQEINSAFSNQITPVISGDYIVWQDERDGNWDIYMYDMSAGRTETSLFNGPKDEIEPAISGSRVVLADNRRGNYDIYMYDISTKKEVQVTSDKSEQKEPAISEDIIVWTDRRNQNTDIYMYDLTTKEETRITDDKADQSQPAVWGNIIVWKDTRNGNEDIYMYDISAGKESPVVMDSAAQTNPVIEGDYIVWEDRRAGNLDIYMYEISTGKEKPVCTDPSPQKTPAISDGRIVWADGRIKGTNIFIYDIATGQEKTVSTASEYESNPSIDGNRIVWQDKRKGAMDIFMFTEDASETESTAGEKTEAETGSKAPLGIYPVSAGVIAAYLMINSGKKGKRKTLEHHHHHH	not soluble
MPRAVAERGDVVPVLAEVFRSHGFDGASLAVITEHTGLGKGSLYNFFPRGKDEMAEAVLDEVDAWFQTAVYLPLRGSEPAAARLERMFDEVETYFRSGRRICLFGAFALGLERDRFADRVRAYFTDWVDSLAGALADAGHGRPSRPLAEEVVAGIQGALVLARALDDPDSFTRILTRLRRSVGDPTTSRA	soluble
MSLFTGENWDPYEWAKVFKKSGAKFVVLVAEHHDGFALWESNYTRWCATKIGPKRDIVRELKEAVEGQGLIFGISYHRAEHWWFFDQGMKIESDVKDPRYLDLYGPAQSASLNPRDPPSLDNVQPNDEFLMDWLLRIVEAVEKYRPWLVYFDWWIANPSFQPYLKAFASYYYNRSYKWGIEPVIIYKQGAFGEGTAIPDLAERGTIKNVYPSTWLADTSIDYKSWGYIKDAEYKLPSVILSHLGDVVSKNGVFLLNIGPKADGTIPEEAKRILLDVGDWLNVNGEAIFGSKPWRVYGEGPSGINEGGFFTERKITLGYQDVRYTVKDYYPRQRHIYAILFGKPKEITLRSFMKNLKLIEEAVIVDVSRLDGKGKLEWSLSDEGLKIKIEEVIRAPLVIRVILDYREGHHHHHH	not soluble
MGSSHHHHHHGGTGENLYFQGGSGMADERFDSMLLAIAQQQQGIDGILDTFFSFLNRKTDFFTQPDMARRSVQQAMSRYLAEAEEKQRKAKEAQAAAQQQQQQQQQSARTSSRVEVLESEEEVNAVAAAQAAEEAAQRKQELERAQREVAEAKAKKEAAGNEAETGATEAFADTGDAPRGLPPTAANGFAYEKYIFSQSLQEAEVRVPLPAVNVKGKQVSIVITSSHLTVGMKGQPPIVDGDLYSKVRAEECMWTIEDGHTVVVTLYKVNSMEWWKTIFQGDPEIDLQKVIPENSKLDDLDSDTRQTVEKMMYDQRQKMMGKPTSDEQKKQDMLRKFMEAHPEMDFSQAKFC	soluble
MIVMTQVRLSELVAPSFYEIHNDIKHNRYTHYWLKGGRGSTKSSFVSIEIILGVMKDPNANAVALRKVKETIKDSVFEQLVWAIEKLKVTEYWEIKHNPMELTYLPTGQKILFRGADKPRKIKSIKVSRGYVKFIWYEEVDEFLGMEEIRIINQSLMRGGEQFVVFYTYNPPNRVNAWVNEEILIDRPDRKVHHSTYLTVPRDWLGEQFFIEAEHLKKVNEKAYRHEYLGEVTGTGGEVFTNVKARKINDEEIKAFDRIKRGLDFGYAVDPAAYIVCHFDKTRRRLYIFHEIFQVGLSNRKLAELIKKENKSNKLVVADSAEPKSIAELRGYGINIRGAKKGPDSVEYGIKFLQDLEEIIIDPERCPNTLREFVNYELEKDKDGNFKAEFPDKNNHTIDAVRYALEDDMRTGGLSILK	soluble
VTTRQEKAAQTRRDLLDAARVVFERNGYLNATITDITTEAGKAAGSFYNHFDGKEALLLALADDIGDDADALITTSPDDLRNLGPHLAVFWQLQSRHRPVMAALRDAALVDPEFAQRMHDFGI	not soluble
MGSSHHHHHHSSGLVPRGSHMVAFLRGDRRKENSDNFRTRNSILGDIINSSPATVGKAQYLTYLAQPIEPSGNYSTFAEAQKTRAPRVYVGANDGMLHGFDTDGNETFAFIPSAVFEKMHKLTARGYQGGAHQFYVDGSPVVADAFFGGAWHTVLIGSLRAGGKGLFALDVTDPANIKLLWEIGVDQEPDLGYSFPKPTVARLHNGKWAVVTGNGYSSMNDKAALLIIDMETGAITRKLEVTGRTGVPNGLSSPRLADNNSDGVADYAYAGDLQGNLWRFDLIAGKVNQDDPFSRANDGPAVASSFRVSFGGQPLYSAVDSAGAAQAITAAPSLVRHPTRKGYIVIFGTGKYFENADARADTSRAQTLYGIWDQQTKGEAAGSTPRLTRGNLQQQTLDLQADSTFASTARTIRIASQNPVNWLNNDGSTKQSGWYLDFMVNGTLKGEMLIEDMIAIGQVVLLQTITPNDDPCADGASNWTYGLDPYTGGRTSFTVFDLARQGVVDSKSDYSYNKQNVAVSGTEQKGLGGLTLSTNEQGNPEVCSSGECLTVNPGPNTRGRQNWRPIEGKN	soluble
MFLRIDRLQIELPMPKEQDPNAAAAVQALLGGRFGEMSTLMNYMYQSFNFRGKKALKPYYDLIANIATEELGHIELVAATINSLLAKNPGKDLEEGVDPESAPLGFAKDVRNAAHFIAGGANSLVMGAMGEHWNGEYVFTSGNLILDLLHNFFLEVAARTHKLRVYEMTDNPVAREMIGYLLVRGGVHAAAYGKALESLTGVEMTKMLPIPKIDNSKIPEAKKYMDLGFHRNLYRFSPEDYRDLGLIWKGASPEDGTEVVVVDGPPTGGPVFDAGHDAAEFAPEFHPGELYEIAKKLYEKAK	soluble
MASKRALVILAKGAEEMETVIPVDVMRRAGIKVTVAGLAGKDPVQCSRDVVICPDASLEDAKKEGPYDVVVLPGGNLGAQNLSESAAVKEILKEQENRKGLIAAICAGPTALLAHEIGFGSKVTTHPLARDKMMNGGHYTYSENRVEKDGLILTSRGPGTSFEFALAIVEALNGKEVAAQVKAPLVLKDLEHHHHHH	soluble
MGSDKIHHHHHHMTIRYTFGGDEFIFVEISESMSLDAFFKGTAITRELRRRNVPGVTEICPANASYQVRYDPDVIEPDTLLALLKTIEAEVGEAALNIDTRIVEVPVLYNDPWTHETLMRFRERHQAPESTDLEYAARVNGKRDIDEFIAAHAGSPWFVSMVGFVAGLPFMYQMVERERQLQVPKYLRPRTDTPKLTVGHGGCFGCIYSVRGAGGYQMFGVTPAPIFDPAQRLDYLRDFMVFFRPGDIVKFKPIDRAEYDAAVAAVEAGTFTLRVKPVRFALEAFLRDPHAYNRSLVEVLDAN	not soluble
MGHHHHHHSHMSIFTPTNQIRLTNVAVVRMKRAGKRFEIACYKNKVVGWRSGVEKDLDEVLQTHSVFVNVSKGQVAKKEDLISAFGTDDQTEICKQILTKGEVQVSDKERHTQLEQMFRDIATIVADKCVNPETKRPYTVILIERAMKDIHYSVKTNKSTKQQALEVIKQLKEKMKIERAHMRLRFILPVNEGKKLKEKLKPLIKVIESEDYGQQLEIVCLIDPGCFREIDELIKKETKGKGSLEVLNLKDVEEGDEKFE	soluble
MSLEHWNKTFCLEVKGDYACFTRPEMKVERVSYDVITPSAARGIFEAIFWKPAIRWRIRKIEVLNPIKWISVRRNEVGQTASERSDGIFIETARQQRAGLFLRDVAYRLHAELEFVPPSERPDAKRPVPESLQDGRETSELRKDENPGKYYAIFERRARKGQCFNQPYLGCREFSCEFRLVDDLANEPPPISETRNLGFMLYDLDFQKNLKEPPPAFFPACLEKGVIKVPDWESEEVRKEGHHHHHH	soluble
SAEGDAGSDQRQNEEIEAMAAIYGEEWCVIDDCAKIFCIRISDDIDDPKWTLCLQVMLPNEYPGTAPPIYQLNAPWLKGQERADLSNSLEEIYIQNIGESILYLWVEKIRDVLIQKSQMTEPGPDVKKKTEEEDVECEDDLILACQPESSVKALDFDISETRTEVEVEELPPIDHGIPITDRRSTFQAHLAPVVCPKQVKMVLSKLYENKKIASATHNIYAYRIYCEDKQTFLQDCEDDGETAAGGRLLHLMEILNVKNVMVVVSRWYGGILLGPDRFKHINNCARNILVEKNYTNSPEESSKALGKNKKVRKDKKRNEH	soluble
MIEIIETGPFNTVQDLGRPGYRDVGVSAGGAMDPLAVKIGNILLGNFDDAAVIEVQTFPFKMRFEARAAFAVTGADGQMLLDGRELLPWCTHVAAEGQVLELKQPPQFARAYISLTGGVDVPVLMGSRSTALRGGFGGNAGRPLARGDRLKIGTVADALPLPASGIAVIEPATALRDVFAPPIEGILQIRAIPAGEHGLFASDGEAFWSQTWRISSRSDRTGYRLSGEPIKPTETIEMRSHGVVPGVVQVPPGGEPIIQMSDANTAGGYPKVAGVIECDLWRLGQARIGSRLQFVRSTHAEARVVEQAVASYLEDIRQTSHMVKRALKAMAAAALEHHHHHH	not soluble
MYGILCLSLRRIFQWHTYSMVRIHSLNTMNILTNLEFSFPILYSYETLNTMLRKQRRLYMPRTNYIDIMEKNHMEIPWHDYTNADSNALIANADLIEKASVIGRVGLIMLSCGTGAWRVRTSMNKLSKELGVTCTVDVGLMSIEFNCFDGNDCVSQSLSIANTGVNTSKLYRMEQFVDNFPNEEAHLTGEMIHKRLDEIEQIHTLYSPVKLG	not soluble
MSLELEQLTSNSIRPYIPKGTHPVETGKYLISTNEIDRMYQTVLQWIGNRIPGAIIYGRPRLGKTRAITYLMNCLPQDFGNNMPIYHVRCRTYKRPNENSFFEDLLLAVGHSIAIQGKANVKRNRLLKFLVERSDFSGTNKVVFFIDDAQRLVEIHYDWLMDLFNELEQYGITLTTILVGQKELVHQRSAFISGEKFQIVGRFMSQEYQFKGIKTPRDLKICLTGYDEYCEYPINSNWSFTKYFFADSFIRGLRLQNSAEELFQVFVDLRREHGLSQKVEIPMQHITLTVEYALKNFGIDNLDLTTIEKTHWEESIKNSGYIQSELYQTTEGHHHHHH	not soluble
MEKSLVDTVYALKDEVQELRQDNKKMKKSLEEEQRARKDLEKLVRKVLKNMNDPAWDETNL	soluble
